Measured values reported in article PMC5890177, “Selective Detection of Lysozyme Biomarker Utilizing Large Area Chemical Vapor Deposition-Grown Graphene-Based Field-Effect Transistor”.

Molecular target: lysozyme (chicken (egg white), UniProt P00698 19-147)
Experiment: square wave voltammetry (electrochemical aptasensor); 0.01x PBS; peak current falls with lysozyme; 0.01x PBS (stock dilutions in 0.1 mM phosphate-buffered solution, pH 7.4), 30 min incubation, then rinse in 0.01x PBS and DI water; chip pretreated with Tween 20; binding temperature not stated
Conditions: protein: commercial; label: methylene blue

lysozyme, sequence (P00698 19-147): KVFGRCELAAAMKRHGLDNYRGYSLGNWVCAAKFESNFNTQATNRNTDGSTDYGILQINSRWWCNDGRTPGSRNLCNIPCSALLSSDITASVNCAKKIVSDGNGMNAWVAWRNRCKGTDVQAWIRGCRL

ATCAGGGCTAAAGAGTGCAGAGTTACTTAG (ssDNA, thiol) [MB-labelled thiolated anti-lysozyme aptamer]: binds.
